# Experimental data taken from FireProtDB (doi:10.1021/bi982931h).
# Details: Geobacillus stearothermophilus, 25 °C, Urea, CD, Sodium phosphate 10 mM, reversible: yes, whole UniProt chain shown
protein,measurement,setting,value
"Large ribosomal subunit protein bL9 wild type, P02417 (protein) MKVIFLKDVKGKGKKGEIKNVADGYANNFLFKQGLAIEATPANLKALEAQKQKEQRQAAEELANAKKLKEQLEKLTVTIPAKAGEGGRLFGSITSKQIAESLQAQHGLKLDKRKIELADAIRALGYTNVPVKLHPEVTATLKVHVTEQK",unfolding free energy,"pH 2.4, NaCl 750 mM",2.9 kcal/mol
same,unfolding free energy,"pH 2.79, NaCl 100 mM",2.3 kcal/mol
same,unfolding free energy,"pH 3.15, NaCl 750 mM",3.1 kcal/mol
same,unfolding free energy,"pH 3.55, NaCl 100 mM",3 kcal/mol
same,unfolding free energy,"pH 4.14, NaCl 750 mM",4 kcal/mol
same,unfolding free energy,"pH 4.51, NaCl 100 mM",3.5 kcal/mol
same,unfolding free energy,"pH 5.25, NaCl 750 mM",4.8 kcal/mol
same,unfolding free energy,"pH 5.99, NaCl 100 mM",4.4 kcal/mol
same,unfolding free energy,"pH 6.56, NaCl 750 mM",4.7 kcal/mol
same,unfolding free energy,"pH 6.98, NaCl 100 mM",4.5 kcal/mol
same,unfolding free energy,"pH 7.26, NaCl 750 mM",5.2 kcal/mol
